Data published in the supplement of paper PMC9170038.

System: K4 kissing-loop RNA reporter
Test: apparent KD of K4 kissing-loop reporter; higher = weaker reporter binding
Details: Eterna round: R107; input ligand: none
Method: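 RNA-MaP round R107: designed RNA switches with theophylline, tryptophan, arginine or FMN aptamers are transcribed on-chip within common flanks. They are titrated with a labelled K4 kissing-loop RNA reporter in RNA-MaP buffer (100 mM Tris pH 7.5, 80 mM KCl, 4 mM MgCl2), without ligand or with the indicated ligand. Median apparent KD per design.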
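Note: bound reporter read as fluorescence of individual clusters on recovered sequencing chips by microscopy, with normalized cluster intensities fitted with a binding model.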

Sequence	apparent KD of K4 kissing-loop reporter [nM]
AAGGCCGCGCGGUGAUGUUUCAUCGCCGCCCGAGGACCGGUACGGCCGCCACUCGGAUAUAUCGCAGUGAUGUUGCUCUAUAUCA [Exclusion - Tryptophan A]	155
CGUUCCUCUGUCGAUACCAGCUUCAGUUGGCGGCCAGUGAUGUUGGUAUCGCCGAUGCCAAGCCCUUGGCAGCGACAUGAGAACC [Uslaessobi]	166
UUUAUUAAGACGGCCGCCACUGAAUUAGAGUGAUGUUCUAUAAUUUCUAAAUUAAAUUUAUUCAACAGGACCGGGUCAAUUAUUA [JR_SSTryptoB_Sub011]	382
GAUCCAUGACAAGGAUAUUCGCCAACGGUGCCGGAGUGAUGUUCUGCACAACAGACUACAAGUAAGGAAGAAGGUGUCAGUUACC [theeternabot_sameState_KL_FMN_B_29]	946
AUGUCUGAUAGCAGUGAUGUUGCUUCAGAUACCAGACGAGAUCAUGUCCCUUGGCAGCUGACACGGCACGUGCUAGGUUAGAUGA [whbob_Ex_Theo_A_th71]	118
AGUCCACUCUAAAGAGUGGACCUAAGGGAUACCAGUGAUGUUGGUCACCCUUGGCAGCCCACUGUCAUCGAUAAAGAUGGCAGAA	114
GCGCGGCCCAGUGAUGUUGGGCCUCGGAGACGAGGACCGGUACGGCCGCCACUCGUCCGCGCAGCUGAGGCAAAAGCCUCGGCAA [Omei KL Tryp A SS B v6]	228
AAGCUCAGCGUGACUCGAUAAGAGUCACAACGAGGACCGGUACGGCCGCCACUCGAAAUAAGAGAGUGAUGUUCUCGCUGAGCAA [#SwitchBubble 6 #StaticStem #K4Late]	620
GGACGACAGGCGGCCGCCACUCACAGCAGCCAGCGAGUGAUGUUCGUAGCGGAGUGAUGUUCCGAGAGGACCGGGUCUGCAGUCC [Same State Tryptophan B GF 17]	224

Same assay, conditions: Eterna round: R107; input ligand: theophylline 20 uM

Sequence	apparent KD of K4 kissing-loop reporter [nM]
UUUACUCCGAGUGAUGUUCGGCGUAUCUGACGAGGACCGGUACGGCCGCCACUCGGUUCGACUACGAAGGCCUUGGCCACAGAUU	284
GCAGUGAUGUUGCUGAUGUACAGUGGGAUACGAGGACCGGUACGGCCGCCACUCGUACAGAAUUUGUUAAUACAUCGAUAAGUGA [XV]	436
GGAUAGGACAGAGGAUAUCCAGUGAUGUUGGAGAAUUCUCCUUCAACAUGUCACAAAAGUGGCAUGGGAGAAGGCUGUCCUAUCG [Mod of Eli's FmnBX 29 v2]	99.7
AAUCAAUACAGAAGGAGCGUGACAUUUGCUAUUGUAAUUUUAGCUAGUGAUGUUAGCAUUUCACAGGUAGGUCGCUGUACAUUUA [JR_SSArginiB_Sub010]	415
GGUAGCGCCAGAGAUACCAGUCAUAUCGCUCUGGAGUGAUGUUCCGGAACGUGCGGAGAAGACCCUUGGCAGCUCAUGACGGUAU [Exclusion Theophylline B GF 3]	227
AAAGAAGUAUACUUCAAGAGGUAUGCUGAUACCAGAGUCAAUUGACUCCCUUGGCAGCGGAUCGAGUGAUGUUCGUAACCUCAAA [AK3 SS Theophylline A]	192
AAGCCGGUUGCGGCCGCCACUUUUGCGGACCCGGUGCAGUGAUGUUGCGCAUCGCGGGUUGCUUAAAGGACCGGGCACCUCUAAC [theeternabot_sameState_KL_Trp_B_7]	363
CCUGCAGCUGUAACCGAGUGAUGCUACGGACGAGGACCGGUACGGCCGCCACUCGCCAGUGAUGUUGGUGUGGGAGGACGUAACU [KL-XTryp-A22]	178
UCCUGCAAUCUGCCACGAAAGUGGAUUGAUACCAGAGUCGAAAGACUCCCUUGGCAGCGAGUGAUGUUCGUAGCAGGUAAAUAAA [MatMod 6 - Jieux - Exclusion - Theophylline A]	218
AAGGCCGCGCGGUGAUGUUUCAUCGCCGCCCGAGGACCGGUACGGCCGCCACUCGGAUAUAUCGCAGUGAUGUUGCUCUAUAUCA [Exclusion - Tryptophan A]	167
CGUUCCUCUGUCGAUACCAGCUUCAGUUGGCGGCCAGUGAUGUUGGUAUCGCCGAUGCCAAGCCCUUGGCAGCGACAUGAGAACC [Uslaessobi]	105
UUUAUUAAGACGGCCGCCACUGAAUUAGAGUGAUGUUCUAUAAUUUCUAAAUUAAAUUUAUUCAACAGGACCGGGUCAAUUAUUA [JR_SSTryptoB_Sub011]	392
GAUCCAUGACAAGGAUAUUCGCCAACGGUGCCGGAGUGAUGUUCUGCACAACAGACUACAAGUAAGGAAGAAGGUGUCAGUUACC [theeternabot_sameState_KL_FMN_B_29]	609
AUGUCUGAUAGCAGUGAUGUUGCUUCAGAUACCAGACGAGAUCAUGUCCCUUGGCAGCUGACACGGCACGUGCUAGGUUAGAUGA [whbob_Ex_Theo_A_th71]	102
AGUCCACUCUAAAGAGUGGACCUAAGGGAUACCAGUGAUGUUGGUCACCCUUGGCAGCCCACUGUCAUCGAUAAAGAUGGCAGAA	122
GCGCGGCCCAGUGAUGUUGGGCCUCGGAGACGAGGACCGGUACGGCCGCCACUCGUCCGCGCAGCUGAGGCAAAAGCCUCGGCAA [Omei KL Tryp A SS B v6]	187
AAGCUCAGCGUGACUCGAUAAGAGUCACAACGAGGACCGGUACGGCCGCCACUCGAAAUAAGAGAGUGAUGUUCUCGCUGAGCAA [#SwitchBubble 6 #StaticStem #K4Late]	824
GGACGACAGGCGGCCGCCACUCACAGCAGCCAGCGAGUGAUGUUCGUAGCGGAGUGAUGUUCCGAGAGGACCGGGUCUGCAGUCC [Same State Tryptophan B GF 17]	168

Same assay, conditions: Eterna round: R107; input ligand: tryptophan 2.4 mM

Sequence	apparent KD of K4 kissing-loop reporter [nM]
UUUACUCCGAGUGAUGUUCGGCGUAUCUGACGAGGACCGGUACGGCCGCCACUCGGUUCGACUACGAAGGCCUUGGCCACAGAUU	285
GCAGUGAUGUUGCUGAUGUACAGUGGGAUACGAGGACCGGUACGGCCGCCACUCGUACAGAAUUUGUUAAUACAUCGAUAAGUGA [XV]	522
GGAUAGGACAGAGGAUAUCCAGUGAUGUUGGAGAAUUCUCCUUCAACAUGUCACAAAAGUGGCAUGGGAGAAGGCUGUCCUAUCG [Mod of Eli's FmnBX 29 v2]	108
AAUCAAUACAGAAGGAGCGUGACAUUUGCUAUUGUAAUUUUAGCUAGUGAUGUUAGCAUUUCACAGGUAGGUCGCUGUACAUUUA [JR_SSArginiB_Sub010]	259
GGUAGCGCCAGAGAUACCAGUCAUAUCGCUCUGGAGUGAUGUUCCGGAACGUGCGGAGAAGACCCUUGGCAGCUCAUGACGGUAU [Exclusion Theophylline B GF 3]	171
AAAGAAGUAUACUUCAAGAGGUAUGCUGAUACCAGAGUCAAUUGACUCCCUUGGCAGCGGAUCGAGUGAUGUUCGUAACCUCAAA [AK3 SS Theophylline A]	117
AAGCCGGUUGCGGCCGCCACUUUUGCGGACCCGGUGCAGUGAUGUUGCGCAUCGCGGGUUGCUUAAAGGACCGGGCACCUCUAAC [theeternabot_sameState_KL_Trp_B_7]	327
CCUGCAGCUGUAACCGAGUGAUGCUACGGACGAGGACCGGUACGGCCGCCACUCGCCAGUGAUGUUGGUGUGGGAGGACGUAACU [KL-XTryp-A22]	199
UCCUGCAAUCUGCCACGAAAGUGGAUUGAUACCAGAGUCGAAAGACUCCCUUGGCAGCGAGUGAUGUUCGUAGCAGGUAAAUAAA [MatMod 6 - Jieux - Exclusion - Theophylline A]	185
AAGGCCGCGCGGUGAUGUUUCAUCGCCGCCCGAGGACCGGUACGGCCGCCACUCGGAUAUAUCGCAGUGAUGUUGCUCUAUAUCA [Exclusion - Tryptophan A]	203
CGUUCCUCUGUCGAUACCAGCUUCAGUUGGCGGCCAGUGAUGUUGGUAUCGCCGAUGCCAAGCCCUUGGCAGCGACAUGAGAACC [Uslaessobi]	172
UUUAUUAAGACGGCCGCCACUGAAUUAGAGUGAUGUUCUAUAAUUUCUAAAUUAAAUUUAUUCAACAGGACCGGGUCAAUUAUUA [JR_SSTryptoB_Sub011]	314
GAUCCAUGACAAGGAUAUUCGCCAACGGUGCCGGAGUGAUGUUCUGCACAACAGACUACAAGUAAGGAAGAAGGUGUCAGUUACC [theeternabot_sameState_KL_FMN_B_29]	561
AUGUCUGAUAGCAGUGAUGUUGCUUCAGAUACCAGACGAGAUCAUGUCCCUUGGCAGCUGACACGGCACGUGCUAGGUUAGAUGA [whbob_Ex_Theo_A_th71]	102
AGUCCACUCUAAAGAGUGGACCUAAGGGAUACCAGUGAUGUUGGUCACCCUUGGCAGCCCACUGUCAUCGAUAAAGAUGGCAGAA	116
GCGCGGCCCAGUGAUGUUGGGCCUCGGAGACGAGGACCGGUACGGCCGCCACUCGUCCGCGCAGCUGAGGCAAAAGCCUCGGCAA [Omei KL Tryp A SS B v6]	107
AAGCUCAGCGUGACUCGAUAAGAGUCACAACGAGGACCGGUACGGCCGCCACUCGAAAUAAGAGAGUGAUGUUCUCGCUGAGCAA [#SwitchBubble 6 #StaticStem #K4Late]	548
GGACGACAGGCGGCCGCCACUCACAGCAGCCAGCGAGUGAUGUUCGUAGCGGAGUGAUGUUCCGAGAGGACCGGGUCUGCAGUCC [Same State Tryptophan B GF 17]	223
